Reference: patent US20240150805A1, “Glycosylated Opioids” (River Stone Biotech ApS, priority 2021, published 2024)

B1: SEQ ID NO: 214: UGT fused N-terminally to a solubility tag (protein)
chain: METHINLKVSDGSSEIFFKIKKTTPLRRLMEAFAKRQGKEMDSLRFLYDGIRIQADQTPEDLDMEDNDIIEAHREQIGGGGGGSGGGGSGGGGSEQKPHIALLPSPGMGHLIPLVEFAKQFVLHHDFHITCIIPVLGSPSKAMKAVLQALPTTIDHVFLPPVILEEEEIKGLKFEVQTILTLTRSLPPLREVLKTTRFSAFVVDPFGIDALDIAKELNISPYIFFPSNAFALSLIFHLPKLDETVSCEYRDLPEPLKLPGCIPIHGRDLIEPVQDRTSELYKMFLRNAKRFRLAEGIIVNTFMELEGSAIKALLDEEAKNLPLYPIGPIQSGSSNLQVDKSVSDCLRWLDNQPHGSVLFVCFGSGGTLSYDQTNELALGLELSGQKFLWVVRTPNNESADAAYLSDQILDNNPLDFLPKGFVERTEGQGLAVPSWAPQAQVLSHGSTGGFLTHCGWNSTLESIMQGIPLIAWPLYAEQKMNAPLLAEDLKVALRPKTNKSGLIDQEEIAKVVKGLMIGEEGKKVYNRMKDIKMAAEKALSADGSSTKALSELASQWKNHPGF
B2: SEQ ID NO: 170: additional UGT with 62% identity at the protein level to SEQ ID NO: 96 (protein)
chain: MEQTPHIAIMPTQGMGHLIPLVEFAKRLVLTHNFSATFLIPTDPGRLPAAQKSFLDSLPAGINYVLLPPVNFDDLPDDVGSETRISLAVVRSLPSLRDALKSLVSGFRVVALVVDLFGTDAFDVAAEFNVSPYIFYPSTAMALSLFLHLPKLDESVSCEYRDLPEPVQIPGCIPVHGKDLLDPVQDRKNGAYKWLLHQVKRYRLAEGIMVNSFKELEGGAIKALQEEEPGKPPVYPIGPLVQMDGADEKSECLRWLDDQPRGSVLFVSFGSGGTLSYDQLNELALGLEMSEQRFLWVVRSPNNKSANATYFSVNSQNDPFAFLPKGFLERTKGYGLVVPSWAPQVRVLSHGSTGGFLTHCGWNSTLESVVNGVPLIAWPFYAEQKMNAVMLTEDLKVALRLRIGENGIIGRAEIAKVVKGLMEGEEGKQIRSRMIDLKDAAARALGEDGDSTKSLAELAQKWKNKIIS

How the values were obtained:
[1] = Effect of N-terminal tags on UGT activity in yeast bioconversion of oripavine; assay type: cell-based, Saccharomyces cerevisiae; settings: UGT with solubility tag
[2] = Test of additional UGT (SEQ ID NO: 170) in yeast fed with oripavine; assay type: cell-based, Saccharomyces cerevisiae; settings: Delft pH 5.5 media, 2 mM oripavine, 3 days, 30 degrees Celsius
Experimental: An additional UGT (SEQ ID NO: 170) with 62% identity at the protein level to SEQ ID NO: 96 was also tested in a similar manner as above. Briefly, cells were grown overnight in SC-HLU and used to inoculate Delft pH 5.5 media containing 2 mM oripavine. After growth with shaking at 30 degrees Celsius for 3 days, total extracts were obtained by mixing the cultures with an equal volume of 0.2% formic acid and heating at 80 degrees Celsius for 10 minutes. After centrifugation, the supernatant was diluted in 0.1% formic acid for quantification by HPLC as described in the Materials and Methods. UGT SEQ ID NO: 170 was active for glucosylation on both oripavine and nororipavine however it produced 41% of the noropavine-glu relative to SEQ ID NO: 96 and 35% of oripavine-glu relative to SEQ ID NO: 96.

| Molecule | amounts of glucosylated nororipavine compared to the untagged UGT alone [1] | noropavine-glu produced relative to SEQ ID NO: 96 [2] [%] | oripavine-glu produced relative to SEQ ID NO: 96 [2] [%] |
| --- | --- | --- | --- |
| B1 | higher | – | – |
| B2 | – | 41 | 35 |
